# Measurements from IntAct's records for PubMed 19448033.
# Columns and labels:
# cipko_arath CIPK24 [1] = molecular target: cipko_arath CIPK24 (UniProt Q9LDI3)
# cipko_arath CIPK24 [2] = molecular target: cipko_arath CIPK24 (UniProt Q9LDI3); remark: listed apart in the source
# Chain of cipko_arath CIPK24 (Q9LDI3 whole entry): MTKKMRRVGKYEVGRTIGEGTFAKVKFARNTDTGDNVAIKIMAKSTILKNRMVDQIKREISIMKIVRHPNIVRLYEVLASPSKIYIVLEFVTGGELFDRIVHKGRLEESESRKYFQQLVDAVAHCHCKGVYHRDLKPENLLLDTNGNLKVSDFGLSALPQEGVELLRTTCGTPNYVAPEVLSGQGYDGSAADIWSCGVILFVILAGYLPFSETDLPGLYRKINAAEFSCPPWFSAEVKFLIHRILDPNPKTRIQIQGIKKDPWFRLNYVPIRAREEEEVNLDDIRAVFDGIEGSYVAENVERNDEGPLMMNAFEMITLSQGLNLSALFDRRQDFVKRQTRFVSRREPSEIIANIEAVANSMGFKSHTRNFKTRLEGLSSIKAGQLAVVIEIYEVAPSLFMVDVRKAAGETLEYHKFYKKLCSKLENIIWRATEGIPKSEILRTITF
# Chain of Calcineurin B-like protein 10 (Arabidopsis thaliana (Mouse-ear cress)), Q7FRS8-2 S237A (Q7FRS8 other isoform, or with tags, fused parts or gaps S237A): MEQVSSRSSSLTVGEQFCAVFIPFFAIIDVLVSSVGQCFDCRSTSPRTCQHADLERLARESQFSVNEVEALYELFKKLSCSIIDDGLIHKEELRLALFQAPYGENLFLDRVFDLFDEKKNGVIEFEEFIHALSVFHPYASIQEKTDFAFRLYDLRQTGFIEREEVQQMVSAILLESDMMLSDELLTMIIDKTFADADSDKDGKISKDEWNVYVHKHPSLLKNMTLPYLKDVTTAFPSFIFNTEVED
# Chain of Calcineurin B-like protein 10 (Arabidopsis thaliana (Mouse-ear cress)), Q7FRS8-2 S237D (Q7FRS8 other isoform, or with tags, fused parts or gaps S237D): as the sequence (Q7FRS8 other isoform, or with tags, fused parts or gaps S237A) above
effect of a mutation on the interaction (cipko_arath CIPK24 [1]),effect of a mutation on the interaction (cipko_arath CIPK24 [2]),Substance
disrupting interaction,decreasing interaction,"Calcineurin B-like protein 10 (Arabidopsis thaliana (Mouse-ear cress)), Q7FRS8-2 S237A"
,increasing interaction,"Calcineurin B-like protein 10 (Arabidopsis thaliana (Mouse-ear cress)), Q7FRS8-2 S237D"
